B1: TP-43327F (antibody, human IgG1, kappa, V domains shown)
VH: QVQLVESGGGVVQPGGSLRLSCAASGFTFNIYAMHWVRQAPGKGLEWVARIGSKSSYYATYYADSVKGRFTISRDNSKNTLYLQMNSLRTEDTAVYYCVSGKGDWGQGTLVTVSS
VL: DVVMTQSPLSLPVTLGQPASISCRSSQSLLAGDGKTYLNWFLQRPGQSPRRLIYLVSKLDSGVPDRFSGSGSGTDFTLKISRVEAEDVGVYYCWQGTHFPWTFGAGTRLEIKR
B2: TP-43329F (antibody, human IgG1, kappa, V domains shown)
VH: QVQLVESGGGVVQPGGSLRLSCAASGFTFNIYAMHWVRQAPGKGLEWVARIGSKSSYYATYYADSVKGRFTISRDNSKNTLYLQMNSLRTEDTAVYYCVSGKGDWGQGTLVTVSS
VL: DVVMTQSPLSLPVTLGQPASISCRSSQSLLAGDGKTYLNWFQQRPGQSPRRLIYLVSKLDSGVPDRFSGSGSGTDFTLKISRVEAEDVGVYYCWQGTHFPWTFGAGTRLEIKR
B3: 6-N03-A (antibody, mouse IgG1, kappa, V domains shown)
VH: EVQLVESGGGLVKPGGSLKLSCEASGITFSNYVMSWVRQTPEKRLEWVATISDGGSYTYYPDNVKGRFTISRDNAKNNLYLQMSHLKSEDTAMYYCVRDRYDYDGRVYAMDYWGQGTSVTVSS
VL: DVVMTQTPLSLPVSLGDQASISCRSSQSLVHSNGDTYLHWYLQKPGQSPKLLIYKVSNRFSGVPDRFSGSGSGTDFTLKITRVEAEDLGVYFCSQSTHVPWTFGGGTKLEIKR
B4: R3-P3-E09 (antibody, human IgG1, kappa, V domains shown)
VH: EVQLVETGGGVVQPGRSLTLSCGASEFTFSNYAMHWVRQAPGKGLEWVAVISYDGTKKYYGDSVKGRFTISRENIKNTLYLQMNSLRSEDTAVYYCARDVGKGVTATGTFDIWGQGTMVTVSS
VL: AIRMTQSPSSLSASVGDRVTITCRASQGIGSYLAWFQQKPGEAPKSLIIDATRLKSGVPSRFSGSGSGTEFALTISSLRPEDFATYYCQQYNVSPLTFGGGTKVEIKR
notes: human IgG1 kappa from the phage campaign
B5: 19838-6-N03-A (antibody, IgG1, V domains shown)
VH: EVQLVESGGGLVKPGGSLKLSCEASGITFSNYVMSWVRQTPEKRLEWVATISDGGSYTYYPDNVKGRFTISRDNAKNNLYLQMSHLKSEDTAMYYCVRDRYDYDGRVYAMDYWGQGTSVTVSS
VL: DVVMTQTPLSLPVSLGDQASISCRSSQSLVHSNGDTYLHWYLQKPGQSPKLLIYKVSNRFSGVPDRFSGSGSGTDFTLKITRVEAEDLGVYFCSQSTHVPWTFGGGTKLEIKR

Tests used:
[1] = biological target: human Sdc2 on Human Umbilical Vein Endothelial Cells (HUVEC) (human, UniProt P34741 19-201); test: cell-based or functional assay
human Sdc2 on Human Umbilical Vein Endothelial Cells (HUVEC), sequence (P34741 19-201 limits assumed): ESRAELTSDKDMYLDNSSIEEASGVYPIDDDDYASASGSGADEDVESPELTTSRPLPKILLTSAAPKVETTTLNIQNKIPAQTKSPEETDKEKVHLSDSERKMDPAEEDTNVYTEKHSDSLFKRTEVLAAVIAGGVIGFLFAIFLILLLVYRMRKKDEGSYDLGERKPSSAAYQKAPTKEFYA

[2] = biological target: T1, human Sdc2 (human, UniProt P34741 19-144, limits assumed); test: Kd (human Sdc2), summary table of the mAbs
T1 construct: Antigen of the Octet tandem binning, loaded on biosensors at 100 nM; also called huSdc2; hSdc2
T1 sequence (P34741 19-144 limits assumed): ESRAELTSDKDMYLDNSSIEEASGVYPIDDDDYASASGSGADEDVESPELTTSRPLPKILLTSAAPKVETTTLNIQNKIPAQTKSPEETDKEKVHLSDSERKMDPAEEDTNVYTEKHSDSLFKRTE

[3] = biological target: T1, human Sdc2; test: Octet tandem binning; saturating Ab f12 19838-6-N03-A
Description: (§1) These studies were performed in a tandem binning assay format with human Sdc2, used as the antigen (concentration of 100 nM). Antigen loaded biosensors were dipped in a saturating solution of antibody (25 μg/ml) for 240 seconds followed by a competing antibody at 5 μg/ml for 180 seconds. […] Since saturation is not possible to achieve saturation with these clones, they are removed in as ligands, but retained in the analyte orientation in the analysis. A table summarizing the results of epitope binning of the 18 antibodies against huSdc2 is illustrated in FIG. 30. Data is normalized, where the raw binding signal from Competing Ab for a given Saturating Ab is divided by binding in the absence a […] (“buffer”). The threshold determining the matrix color is adjustable and dependent upon Ag-Ab binding. […] Table rows are based on similar looking binding profiles. Note that the coloration/cutoff is subjective, yellow color added to represent injections with ambiguous or very weak sandwiching signals. FIG. 31 illustrates a clustergram of the epitope binning studies, which was generated from the normalized binning data by importation into the statistical computing program R (The R Project for Statistical Computing: at r-project.org) and generation of a clustergram with the pvclust package.

[4] = biological target: T1, human Sdc2; test: Octet tandem binning; saturating Ab f11 19838-20-H19-A
Description: as §1

[5] = biological target: T1, human Sdc2; test: Octet tandem binning; saturating Ab m1 19838-20H19-AB
Description: as §1

[6] = biological target: T1, human Sdc2; test: Octet tandem binning; saturating Ab m8 19844-R4M-P1-B01 (marked non-binding ligand)
Description: as §1

[7] = biological target: T1, human Sdc2; test: Octet tandem binning; saturating Ab f6 19844-R3-P3-E09
Description: as §1

[8] = biological target: T1, human Sdc2; test: Octet tandem binning; saturating Ab f9 19838-6-E17-A
Description: as §1

[9] = biological target: T1, human Sdc2; test: Octet tandem binning; saturating Ab m5 19844-R4M-P3-A12 (row boxed, self-self >0.09)
Description: as §1

[10] = biological target: T1, human Sdc2; test: Octet tandem binning; saturating Ab m6 19838-20H19-AA (marked non-binding ligand)
Description: as §1

[11] = biological target: T1, human Sdc2; test: Octet tandem binning; saturating Ab f5 19844-R4M-P3-E06
Description: as §1

[12] = biological target: T1, human Sdc2; test: Octet tandem binning; saturating Ab m7 19844-R3-P1-E07
Description: as §1

[13] = biological target: T1, human Sdc2; test: Octet tandem binning; saturating Ab f8 19844-R4M-P2-C02
Description: as §1

[14] = biological target: T1, human Sdc2; test: Octet tandem binning; saturating Ab m4 19844-R4M-P1-A10
Description: as §1

[15] = biological target: T1, human Sdc2; test: Octet tandem binning; saturating Ab f10 19838-10-I12-A
Description: as §1

[16] = biological target: T1, human Sdc2; test: Octet tandem binning; saturating Ab m2 19838-8G17-A
Description: as §1

[17] = biological target: T1, human Sdc2; test: Octet tandem binning; Buffer in place of a saturating Ab
Description: as §1

[18] = biological target: T1, human Sdc2; test: Octet tandem binning; saturating Ab f4 19844-R3-P3-C11
Description: as §1

[19] = biological target: T1, human Sdc2; test: Octet tandem binning; saturating Ab m3 19844-R3-P1-C02 (row boxed, self-self >0.09)
Description: as §1

[20] = biological target: T1, human Sdc2; test: Octet tandem binning; saturating Ab f7 19844-R3-P3-A12
Description: as §1

[21] = biological target: T1, human Sdc2; test: Octet tandem binning; saturating Ab f3 19838-6N03-A
Description: as §1

[22] = biological target: T1, human Sdc2; test: Octet BLI, HIS1K sensor loaded with hSdc2, antibody as sample; Full R2 0.9248
[23] = biological target: T1, human Sdc2; test: Octet BLI, heading box over the sensorgram
Description: In order to characterize the binding affinity and in vivo/in vitro functional ability of the twelve clones generated by the previous studies and disclosed in Table 1, a series of assays were performed on each clone. These assays measured the affinity of each antibody clone for human, pig, and mouse Sdc2 using an Octet® binding assay system. Additionally, the functional ability of each clone to inhibit VEGFA-driven permeability (see Santiago, et al. (2021) J Am Heart Assoc. 10(18):e020521) was assessed in two therapeutic settings: a “prevention” study in which three concentrations of antibody (5 μg/ml, 10 μg/ml, 15 μg/ml, 20 μg/ml, and/or 40 μg/ml depending on the study) were pre-incubated for an hour before administration of 100 ng/ml of VEGFA, and a “treatment” study in which 3 hours of pre-treatment with 100 ng/ml VEGFA were followed by treatment with antibody at 20 μg/ml or 40 μg/ml. Results are shown for 8-G17 in FIG. 8 and FIG. 9, 20-H19-AB in FIG. 10 and FIG. 11 (FIG. 12 for monkey ECs), R3-P3-C11 in FIG. 13 and FIG. 14, R4M-P3-E06 in FIG. 15 and FIG. 16, R3-P3-E09 in FIG. 17 and FIG. 18, R3-P1-C02 in FIG. 19 and FIG. 20, R3-P3-A12 in FIG. 21 and FIG. 22, R4M-P3-A12 in FIG. 23 and FIG. 24, and R4M-P1-A10 in FIG. 25 and FIG. 26.

Binder	% Inhibition of VEGFA-induced permeability at 24hrs (20ug/ml) [1] [%]	Kd [2] [nM]	raw competing-Ab binding signal [3]	raw competing-Ab binding signal [4]	raw competing-Ab binding signal [5]	raw competing-Ab binding signal [6]	raw competing-Ab binding signal [7]	raw competing-Ab binding signal [8]	raw competing-Ab binding signal [9]	raw competing-Ab binding signal [10]	raw competing-Ab binding signal [11]	raw competing-Ab binding signal [12]	raw competing-Ab binding signal [13]	raw competing-Ab binding signal [14]	raw competing-Ab binding signal [15]	raw competing-Ab binding signal [16]	raw competing-Ab binding signal [17]	raw competing-Ab binding signal [18]	raw competing-Ab binding signal [19]	raw competing-Ab binding signal [20]	further results
B1	100	< 0.1																			
B2	100	0.8																			
B3	50	1.17	0.0194	0.0908	0.0812	0.497	0.346	0.422	0.472	0.487	0.463	0.486	0.418	0.374	0.0887	-0.0492	0.477	0.301	0.397	0.179	
B4	75	17.7	0.518	0.337	0.273	0.307		0.376	0.304	0.293	0.338	0.348	0.209	0.241	0.151	0.397	0.285	-0.138	0.246	-0.135	raw competing-Ab binding signal [21]: 0.407; Kd [22]: 17.7 nM; koff [22]: 0.00908 s⁻¹; kon [22]: 513000 M⁻¹ s⁻¹; Kd [23]: ~17.7 nM
B5				0.122	0.0556	0.388	0.31	0.378	0.435	0.501	0.463	0.48	0.326	0.336	0.0734	-0.0312	0.413	0.197	0.332	0.162	raw competing-Ab binding signal [21]: 0.0058

Source: US20250282885A1 (VST BIO, published 2025)
